What was measured:
[1] = molecular target: human TIGIT on Jurkat cells (TIGIT/NFAT reporter Jurkat cells, BPS Bioscience #60538; Promega TIGIT Effector Cells) (human) (UniProt Q495A1); assay: flow cytometry, TIGIT/NFAT Jurkat cells, 10 ug/ml
[2] = molecular target: human TIGIT on Jurkat cells (TIGIT/NFAT reporter Jurkat cells, BPS Bioscience #60538; Promega TIGIT Effector Cells) (human) (UniProt Q495A1); assay: cell-based or functional assay

Sequence of human TIGIT on Jurkat cells (TIGIT/NFAT reporter Jurkat cells, BPS Bioscience #60538; Promega TIGIT Effector Cells) (human) (Q495A1 22-244): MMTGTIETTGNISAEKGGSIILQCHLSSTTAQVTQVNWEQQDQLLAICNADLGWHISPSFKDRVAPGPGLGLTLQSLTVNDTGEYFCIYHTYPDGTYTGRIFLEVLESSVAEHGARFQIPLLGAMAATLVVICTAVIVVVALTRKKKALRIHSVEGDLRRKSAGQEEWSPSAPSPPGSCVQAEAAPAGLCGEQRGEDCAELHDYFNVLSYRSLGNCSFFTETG

B1: 43586p1.2.F6 (scFv, V domains shown)
VH: EVQLLESGEGLVQPGGSLRLSCAASGFTFTSYLMSWVRQAPGKGLEWVSTITWDGDRTYYADSVKGRFTISRDNSKNTLYLQMNSLRVGDTAVYYCAKHWTVFQYGMDVWGQGTTVTVSS
VL: QSVLTQPASASGTPGQRVTISCSGTISNIETKYVSWYQQLPGTAPKLLIYGNHQRPSGVPDRFSGSKSGTSASLAISGLQSEDEADYYCASWENDLKSWVFGGGTKLTVL
[1]
  MFI: 10700 MFI
[2]
  max. signal (% of 22G2): 116 % of 22G2
